Reference: US20020082396A1 (published 2002)
Positions count from the first letter of the chain named. Blank lines part the entries; values can stand above or below the binder they belong to.

Biological target: T1, recombinant human IL-8 (Amersham) (human, UniProt P10145 28-99, limits assumed)
T1 construct: In the ELISA it is captured by goat anti-human IL-8 polyclonal antibody on the plate; In the neutrophil assay it is 125I-labelled and non-labelled IL-8 at 4 ng/ml each; also called human interleukin-8
T1 sequence (looked up): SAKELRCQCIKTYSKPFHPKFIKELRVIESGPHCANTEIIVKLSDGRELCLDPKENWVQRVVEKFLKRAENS
Assay: ELISA: human IL-8 captured by goat anti-human IL-8 polyclonal antibody, COS culture medium serially diluted, AP-labelled anti-human IgG

binding result: no binding
B1: antibody of the chimeric WS-4 L chain and version a of the reshaped human WS-4 H chain (chL/RVHa) (antibody, V domains shown)
VH: EVQLLESGGGLVQPGGSLRLSCAASGFTFSDYYLSWVRQAQGKGLELVGLIRNKANGYTREYSASVKGRLTISREDSKNTLYLQMSSLKTEDLAVYYCARENYRYDVELAYWGQGTLVTVSS
VL: DIQMTQSPASLSASVGETVTITCRASEIIYSYLAWYQQKQGKSPQLLVYNAKTLADGVSSRFSGSGSGTQFSLRISSLQPEDFGSYYCQHHFGFPRTFGGGTKLELK
notes: Human C kappa and human C gamma 1 regions (HEF-chWS4L-gk with HEF-RVHa-gg1), tested as COS cell culture medium

binding result: no binding
B2: reshaped human WS-4 antibody RVLa/RVHc (antibody, V domains shown)
VH: B1 VH with Q41P
VL: DIQMTQSPSSLSASVGDRVTITCRASEIIYSYLAWYQQKPGKAPKLLIYNAKTLADGVPSRFSGSGSGTDFTFTISSLQPEDIATYYCQHHFGFPRTFGQGTKVEIK
notes: Human C kappa and human C gamma 1 regions, tested as COS cell culture medium; also called antibody having H chain version c
